The values that follow come from publication PMC9954413 (Cancers, 2023).

To fix the notation:
B1: Arkadia (RNF111) LONG, residues 876-994 (Ark LONG, 119 aa) (domain or fragment, human, UniProt Q6ZNA4 876-994, looked up)
chain: FRGNFEELIHLEERLGNVNRGASQGTIERCTYPHKYKKVTTDWFSQRKLHCKQDGEEGTEEDTEEKCTICLSILEEGEDVRRLPCMHLFHQVCVDQWLITNKKCPICRVDIEAQLPSES
notes: human Arkadia (RNF111), residues 876-994, 119 aa; RING domain with the non-RING elements; also called wt Ark LONG; source: expressed and purified as described elsewhere [31]
B2: Arkadia (RNF111) RING, residues 927-994 (Ark RING, 68 aa) (domain or fragment, human, UniProt Q6ZNA4 927-994, looked up)
chain: KQDGEEGTEEDTEEKCTICLSILEEGEDVRRLPCMHLFHQVCVDQWLITNKKCPICRVDIEAQLPSES
notes: human Arkadia (RNF111), residues 927-994, 68 aa; also called wt Ark RING; source: expressed and purified as described elsewhere [31]
B5: UbcH13 (UBE2N) (enzyme, human)
chain: MAGLPRRIIKETQRLLAEPVPGIKAEPDESNARYFHVVIAGPQDSPFEGGTFKLELFLPEEYPMAAPKVRFMTKIYHPNVDKLGRICLDILKDKWSPALQIRTVLLSIQALLSAPNPDDPLANDVAEQWKTNEAQAIETARAWTRLYAMNNI
notes: human UbcH13 (UBE2N), E2 ubiquitin-conjugating enzyme; also called UbcH13 E2 enzyme

What all share (assay): ITC; 1-3 mM E2 in the syringe injected (2 uL, 15-19 injections) into 100-300 uM Arkadia polypeptide in the cell; 25 °C; 50 mM KH2PO4, 50 mM K2HPO4 pH 7; single-site model
Holding throughout (settings): both partners purified

One assay addresses T1, UbcH7 (UBE2L3) (human, UniProt P68036 1-154).
T1 construct: human UbcH7 (UBE2L3), E2 ubiquitin-conjugating enzyme; also called wt UbcH7; source: expressed and purified as described elsewhere [21,32]

The target of the assay “UbcH13 (UBE2N)” is B5.
The next assay addresses T2, UbcH5B (UBE2D2) (human, UniProt P62837 1-147).
T2 construct: His6-tag cleaved with thrombin; also called wt UbcH5B; wt E2

The target of a further assay is T3, UbcH7 K96S (human, UniProt P68036 1-154, K96S).
T3 construct: human UbcH7 (UBE2L3) with K96S (KPA motif changed to SPA); also called mutant UbcH7; source: site-directed mutagenesis; expressed and purified as the wild type

In assay [1] the target is B1.
Assay [2] deals with B2.

Usually Kd stands for the concentration at which binding is half-saturated. On to B1, for which the results for the Kd in the assay with UbcH7 (UBE2L3), with UbcH13 (UBE2N) and with UbcH5B (UBE2D2) were 4.3 ± 0.5 µM, 51.9 ± 5 µM and 2.7 ± 0.5 µM, respectively.
Take B2: the Kd with UbcH7 (UBE2L3) came out at 27.3 ± 2 µM; with UbcH13 (UBE2N), 264 ± 46 µM; with UbcH7 K96S it was 10.2 ± 0.6 µM.

B3: Arkadia LONG R983K (domain or fragment)
chain: FRGNFEELIHLEERLGNVNRGASQGTIERCTYPHKYKKVTTDWFSQRKLHCKQDGEEGTEEDTEEKCTICLSILEEGEDVRRLPCMHLFHQVCVDQWLITNKKCPICKVDIEAQLPSES
notes: human Arkadia (RNF111), residues 876-994, with R983K; also called Ark LONG R983K; source: site-directed mutagenesis; expressed and purified as the wild type
Turning to B3, in the assay with UbcH5B (UBE2D2), binding was put at a Kd of 5.5 ± 0.6 µM.

B4: Arkadia LONG R983A (domain or fragment)
chain: FRGNFEELIHLEERLGNVNRGASQGTIERCTYPHKYKKVTTDWFSQRKLHCKQDGEEGTEEDTEEKCTICLSILEEGEDVRRLPCMHLFHQVCVDQWLITNKKCPICAVDIEAQLPSES
notes: human Arkadia (RNF111), residues 876-994, with R983A; also called Ark LONG R983A; source: site-directed mutagenesis; expressed and purified as the wild type
In the assay with UbcH5B (UBE2D2), B4 showed a Kd of 8.4 ± 0.4 µM.
A word on the stoichiometry N: it is the number of molecules, sites or subunits per partner or assembly. Consider B5, for which, in assay [1], the dH is -2.3 kcal/mol and the “stoichiometry N” value worked out at 0.9. Besides, in assay [2], the dH came out at 3.4 kcal/mol and the “stoichiometry N” value amounted to 1.1.
